Target: itchy E3 ubiquitin protein ligase (ITCH), wild type, MYC-tagged (UniProt Q96J02-2 1-862)
Test: cell-based or functional assay

Sequence of itchy E3 ubiquitin protein ligase (ITCH), wild type, MYC-tagged (Q96J02 other isoform, or with tags, fused parts or gaps): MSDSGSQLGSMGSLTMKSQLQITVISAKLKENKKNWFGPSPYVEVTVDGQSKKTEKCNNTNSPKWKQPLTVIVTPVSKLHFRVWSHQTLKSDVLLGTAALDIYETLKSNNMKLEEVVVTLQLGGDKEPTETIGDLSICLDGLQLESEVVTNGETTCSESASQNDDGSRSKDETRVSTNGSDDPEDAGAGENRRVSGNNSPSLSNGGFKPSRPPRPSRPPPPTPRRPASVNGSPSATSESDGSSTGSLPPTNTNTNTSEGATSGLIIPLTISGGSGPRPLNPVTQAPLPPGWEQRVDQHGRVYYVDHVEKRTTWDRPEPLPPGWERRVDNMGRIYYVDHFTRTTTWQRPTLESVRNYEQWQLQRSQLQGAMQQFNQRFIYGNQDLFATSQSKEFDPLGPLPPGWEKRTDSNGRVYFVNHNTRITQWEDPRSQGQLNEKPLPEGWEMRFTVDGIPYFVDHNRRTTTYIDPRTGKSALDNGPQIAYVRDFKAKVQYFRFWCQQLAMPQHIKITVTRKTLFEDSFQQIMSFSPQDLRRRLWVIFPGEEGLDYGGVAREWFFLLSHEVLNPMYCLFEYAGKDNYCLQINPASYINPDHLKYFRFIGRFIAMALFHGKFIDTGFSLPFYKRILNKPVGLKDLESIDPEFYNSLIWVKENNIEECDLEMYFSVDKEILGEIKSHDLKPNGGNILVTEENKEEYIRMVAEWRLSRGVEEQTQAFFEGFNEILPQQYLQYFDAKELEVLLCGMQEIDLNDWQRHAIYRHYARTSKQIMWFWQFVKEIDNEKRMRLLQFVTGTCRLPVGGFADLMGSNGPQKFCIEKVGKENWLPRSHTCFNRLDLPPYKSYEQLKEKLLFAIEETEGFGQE

NFE2 half-life in a cycloheximide chase, HEK-293T co-transfected with wt NFE2 and wt ITCH (approximately 3.5 h with empty vector; 6.5 h with inactive ITCH-C830A): ~2 h
B1: wild-type nuclear factor erythroid 2 (NFE2), HA-tagged (natural protein, human, UniProt Q16621 1-373, looked up)
chain: MSPCPPQQSRNRVIQLSTSELGEMELTWQEIMSITELQGLNAPSEPSFEPQAPAPYLGPPPPTTYCPCSIHPDSGFPLPPPPYELPASTSHVPDPPYSYGNMAIPVSKPLSLSGLLSEPLQDPLALLDIGLPAGPPKPQEDPESDSGLSLNYSDAESLELEGTEAGRRRSEYVEMYPVEYPYSLMPNSLAHSNYTLPAAETPLALEPSSGPVRAKPTARGEAGSRDERRALAMKIPFPTDKIVNLPVDDFNELLARYPLTESQLALVRDIRRRGKNKVAAQNCRKRKLETIVQLERELERLTNERERLLRARGEADRTLEVMRQQLTELYRDIFQHLRDESGNSYSPEEYALQQAADGTIFLVPRGTKMEATD

Source: paper PMC12733253, “NFE2 Truncation Mutants Protect Wild-Type NFE2 from ITCH-Dependent Degradation” (International Journal of Molecular Sciences, 2025)
